Test results as given in patent publication US20250171536A1 (CSL INNOVATION, published 2025).

Columns and labels:
[1] = target: Human CD117 (c-kit), cell-surface expressed (human, UniProt P10721 26-976); assay: cell-based or functional assay
[2] = target: T1, Soluble 8xHis-tagged C-terminal fragment of human CD117 (HuCD117 308-524) (human, UniProt P10721 308-524); assay: SPR (Biacore 4000), IgG4 antibody captured on protein G, soluble His-tagged fragment injected at 25, 75, 225 nM
T1 construct: C-terminal part of the extracellular region; also called C-terminal domain; not shown: 8xHis tag

[3] = target: T2, Soluble 8xHis-tagged N-terminal fragment of human CD117 (HuCD117 1-307) (human, UniProt P10721 26-307); assay: SPR Biacore 4000, antibody captured on protein G, His-tagged fragment analyte, 1:1 fit, N=1
T2 construct: This range counts from the precursor start, so a signal peptide is probably cleaved in the secreted protein; also called N-terminal domain; soluble N-terminal; not shown: 8xHis tag

[4] = target: T3, Murine CD117, soluble (MuCD117 1-527) (mouse, UniProt P05532 25-527); assay: SPR, captured antibody, soluble CD117 analyte
T3 construct: Residues as printed
T3 sequence: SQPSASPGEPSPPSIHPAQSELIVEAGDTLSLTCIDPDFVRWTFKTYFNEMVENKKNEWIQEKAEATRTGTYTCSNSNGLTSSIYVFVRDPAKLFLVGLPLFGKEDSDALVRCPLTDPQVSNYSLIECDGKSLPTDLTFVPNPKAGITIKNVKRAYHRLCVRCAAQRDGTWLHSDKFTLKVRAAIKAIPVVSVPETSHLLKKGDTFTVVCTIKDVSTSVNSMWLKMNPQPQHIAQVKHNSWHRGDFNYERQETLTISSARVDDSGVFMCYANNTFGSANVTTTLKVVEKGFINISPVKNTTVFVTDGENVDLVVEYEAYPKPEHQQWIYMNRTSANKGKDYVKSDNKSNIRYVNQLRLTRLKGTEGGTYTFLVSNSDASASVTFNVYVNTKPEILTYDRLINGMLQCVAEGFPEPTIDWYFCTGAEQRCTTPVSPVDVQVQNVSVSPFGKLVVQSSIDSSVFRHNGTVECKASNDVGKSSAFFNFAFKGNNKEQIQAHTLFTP
Protocol: (§1) Biacore 4000 was used for all binding analyses. Experiments were performed at pH 7.3, 37° C. and under flow rate of 30 μL/min. Human anti-CD117 antibodies were surface captured using either polyclonal goat anti-human IgG or IgA antibodies directly immobilised onto the carboxymethyl dextran surface of CM5 sensorchips to approximately 13,000 RU using standard NHS/EDC chemistry at pH 5. The immobilised antibody surface was pre-conditioned with ten injections of human polyclonal IgG (Privigen 60s, 10 μg/mL) each followed by a regeneration cycle with 100 mM H3PO4.
(§2) A total of 18 anti-CD117 antibodies (2 μg/mL) were tested as captured ligands against four soluble mammalian CD117 receptor variants: the N-terminal domain of human CD117 (HuCD1₁₇₁₋₃₀₈), full length human CD117 (HuCD1₁₇₁₋₅₂₄), cyno CD117 (cynoCD117₁₋₅₂₀), and murine CD117 (MuCD117₁₋₅₂₇).
(§3) CD117 proteins were prepared in two-fold dilutions ranging from 0.8 to 200 nM. Anti-CD117 antibodies huAb249, huAb85, huCK6 and huhzSR1 were used as positive controls. BM4 was prepared in an IgG and IgA2 format and used as negative control. Binding affinities were calculated from sensorgrams double-referenced using reference surface and blank buffer injection data gathered within each experiment.

[5] = target: N-terminal domain of human CD117, soluble (HuCD117 1-308) (human, UniProt P10721 26-308); assay: SPR Biacore 4000, captured antibody, soluble CD117 analyte, 1:1 fit;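 note: antibodies captured on CM5 chips via goat anti-human IgG or IgA, CD117 analyte in two-fold series 0.8–200 nM, run at pH 7.3 and 37 °C, double-referenced sensorgrams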
Protocol: as §1, §2, §3

[6] = target: T4, Full length human CD117, soluble (HuCD117 1-524) (human, UniProt P10721 26-524); assay: as above
T4 construct: also called full-length protein
Protocol: as §1, §2, §3

[7] = target: T5, Cyno CD117, soluble (cynoCD117 1-520) (cynomolgus monkey, UniProt P10721 26-520 (human entry)); assay: as above
T5 construct: Residues as printed
T5 chain: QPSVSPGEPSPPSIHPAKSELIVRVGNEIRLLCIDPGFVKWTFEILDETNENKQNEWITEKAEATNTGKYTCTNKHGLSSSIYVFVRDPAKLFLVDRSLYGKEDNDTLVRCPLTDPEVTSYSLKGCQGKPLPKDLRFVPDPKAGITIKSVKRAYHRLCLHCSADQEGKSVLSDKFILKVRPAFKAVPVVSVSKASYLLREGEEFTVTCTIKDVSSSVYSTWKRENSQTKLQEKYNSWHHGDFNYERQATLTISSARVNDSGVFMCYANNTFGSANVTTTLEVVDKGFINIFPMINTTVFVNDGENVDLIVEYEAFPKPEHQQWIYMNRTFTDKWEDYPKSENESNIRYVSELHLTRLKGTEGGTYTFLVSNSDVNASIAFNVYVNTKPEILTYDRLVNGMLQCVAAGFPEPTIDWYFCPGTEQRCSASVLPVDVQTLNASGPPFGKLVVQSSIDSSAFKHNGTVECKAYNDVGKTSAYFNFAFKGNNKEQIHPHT
Protocol: as §1, §2, §3

Sequence of N-terminal domain of human CD117, soluble (HuCD117 1-308) (P10721 26-308): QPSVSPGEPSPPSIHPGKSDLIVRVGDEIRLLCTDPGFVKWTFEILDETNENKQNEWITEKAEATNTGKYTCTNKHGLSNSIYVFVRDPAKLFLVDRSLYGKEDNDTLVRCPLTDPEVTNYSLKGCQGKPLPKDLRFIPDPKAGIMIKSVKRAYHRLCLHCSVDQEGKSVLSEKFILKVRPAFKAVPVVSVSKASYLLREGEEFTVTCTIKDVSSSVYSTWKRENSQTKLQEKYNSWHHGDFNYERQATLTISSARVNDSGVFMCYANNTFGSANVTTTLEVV
T1 sequence (P10721 308-524): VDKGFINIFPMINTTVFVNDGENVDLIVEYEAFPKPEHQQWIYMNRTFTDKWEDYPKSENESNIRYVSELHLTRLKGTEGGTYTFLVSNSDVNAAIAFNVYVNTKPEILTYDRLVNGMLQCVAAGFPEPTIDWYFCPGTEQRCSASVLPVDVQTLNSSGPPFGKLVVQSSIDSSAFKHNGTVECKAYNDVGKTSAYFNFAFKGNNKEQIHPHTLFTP
Sequence of Human CD117 (c-kit), cell-surface expressed (P10721 26-976 limits assumed): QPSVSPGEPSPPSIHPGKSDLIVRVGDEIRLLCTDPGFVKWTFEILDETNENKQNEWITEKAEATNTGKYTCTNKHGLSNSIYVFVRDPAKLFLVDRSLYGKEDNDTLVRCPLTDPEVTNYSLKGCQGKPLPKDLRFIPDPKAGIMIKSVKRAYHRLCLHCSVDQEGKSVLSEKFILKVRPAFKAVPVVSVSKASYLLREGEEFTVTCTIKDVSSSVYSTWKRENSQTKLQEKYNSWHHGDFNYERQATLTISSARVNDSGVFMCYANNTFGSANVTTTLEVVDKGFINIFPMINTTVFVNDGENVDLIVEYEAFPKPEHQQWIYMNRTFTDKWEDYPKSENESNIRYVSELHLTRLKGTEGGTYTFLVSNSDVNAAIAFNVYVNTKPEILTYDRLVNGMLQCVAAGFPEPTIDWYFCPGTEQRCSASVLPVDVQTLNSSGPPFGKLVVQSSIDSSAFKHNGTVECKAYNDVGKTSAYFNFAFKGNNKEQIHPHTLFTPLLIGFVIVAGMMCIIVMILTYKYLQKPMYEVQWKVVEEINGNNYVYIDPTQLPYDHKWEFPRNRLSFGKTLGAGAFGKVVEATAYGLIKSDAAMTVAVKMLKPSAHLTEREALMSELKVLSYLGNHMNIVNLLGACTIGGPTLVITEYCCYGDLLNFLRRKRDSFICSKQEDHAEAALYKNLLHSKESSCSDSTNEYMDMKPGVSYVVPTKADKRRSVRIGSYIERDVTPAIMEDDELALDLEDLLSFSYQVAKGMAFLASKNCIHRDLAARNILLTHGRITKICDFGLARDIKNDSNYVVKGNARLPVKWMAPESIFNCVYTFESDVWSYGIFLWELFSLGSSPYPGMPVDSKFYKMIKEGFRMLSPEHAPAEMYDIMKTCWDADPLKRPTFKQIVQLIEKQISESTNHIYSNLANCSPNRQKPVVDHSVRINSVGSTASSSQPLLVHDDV
T2 sequence (P10721 26-307): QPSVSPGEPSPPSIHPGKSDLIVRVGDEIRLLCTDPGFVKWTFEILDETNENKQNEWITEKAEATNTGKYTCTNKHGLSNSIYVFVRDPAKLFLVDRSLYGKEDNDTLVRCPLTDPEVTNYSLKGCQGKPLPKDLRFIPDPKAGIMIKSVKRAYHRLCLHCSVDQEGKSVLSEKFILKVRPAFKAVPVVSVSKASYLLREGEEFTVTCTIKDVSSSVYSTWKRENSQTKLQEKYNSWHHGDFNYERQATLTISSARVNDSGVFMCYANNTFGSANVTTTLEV
T4 sequence (P10721 26-524): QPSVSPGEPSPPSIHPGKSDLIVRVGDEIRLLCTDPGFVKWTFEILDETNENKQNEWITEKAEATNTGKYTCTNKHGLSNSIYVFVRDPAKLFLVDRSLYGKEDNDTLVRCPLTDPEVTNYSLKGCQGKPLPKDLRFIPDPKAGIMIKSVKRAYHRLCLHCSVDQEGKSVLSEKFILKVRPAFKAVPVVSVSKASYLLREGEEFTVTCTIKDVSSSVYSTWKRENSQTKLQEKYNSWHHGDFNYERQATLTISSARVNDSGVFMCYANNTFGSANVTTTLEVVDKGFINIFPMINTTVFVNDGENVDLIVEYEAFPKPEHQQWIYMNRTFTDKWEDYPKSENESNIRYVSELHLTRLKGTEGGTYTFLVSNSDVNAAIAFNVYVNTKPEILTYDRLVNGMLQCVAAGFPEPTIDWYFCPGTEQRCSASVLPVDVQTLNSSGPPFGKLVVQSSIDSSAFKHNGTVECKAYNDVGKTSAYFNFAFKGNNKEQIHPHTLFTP

Binder | EC50 of trogocytosis (ADCT; DILC18 membrane uptake by neutrophils from CD117-transfected 293 cells) [1] [nM] | Normalised uptake (B max) in %, ADCT [1] [%] | binding result [2] | Kd [3] [nM] | Kd [5] [nM] | Kd [6] [nM] | Kd [7] [nM] | also measured
3B3 IgA2 anti-CD117 antibody (Example 8) (antibody, V domains shown) VH: EVQLVESGGGVVQPGRSLRLSCAASGFTFSSYAMHWVRQAPGKGLEWVSVIYSGGSTYYADSVKGRFTISRDNSKNTLYLQMNSLRAEDTAVYYCARDSSGYRGDFDYWGQGTLVTVSS VL: SYELTQPPSVSVSPGQTASITCSGDKVGAKYVFWYQQKPGQSPVLVVYQDNKRPSGIPERFSGSNSGNTATLTISGTQAMDEADYYCQAWDSSTALYVFGTGTKV | 0.44 | 51.1 | – | – | – | – | – | –
3C2 IgA2 anti-CD117 antibody (Example 8) (antibody, V domains shown) VH: EVQLAESGGDLVQPGGSLRLSCAASGFTFSSYAMSWVRQAPGKGLEWVSAISGSGGSTYYADSVKGRFTISRDNSKNTLYLQMNSLRAEDTAIYYCARDLRVYAMEAFDIWGQGTMVTVSS VL: SYELTQDPAVSVALGQTVRITCQGDSLRDYYANWFQQKPGQAPLLVIFYDSDRPSGIPERFSGSNSGNTATLTISRVEAGDEADYYCQAWDSSSDHWVFGGGTKL | – | 3.38 | – | – | – | – | – | –
3B2 IgA2 anti-CD117 antibody (Example 8) (antibody, V domains shown) VH: QVQLQESGPGLVKPSETLSLTCTVSGYSISSGYYWGWIRQPPGKGLEWIGSIYHSGSTYYNPSLKSRVTISVDTSKNQFSLKLSSVTAADTAVYYCARVGVRYFDWLLYGAFDIWGQGTMVTVSS VL: SYELTQPPSVSVSPGQTATITCSGDKLGETYVHWYQHQSGQSPILVVYQDFKRPSGIPERFSGSNSGNTATLTISGTQAMDEADYYCQAWDSSTAVFGGGTKL | 4.51 | 42.7 | – | – | – | – | – | –
hu3C2 IgG4 (hu3C2-hLG4p) (antibody) heavy: not shown light: SYELTQDPAVSVALGQTVRITCQGDSLRDYYANWFQQKPGQAPLLVIFYDSDRPSGIPERFSGSNSGNTATLTISRVEAGDEADYYCQAWDSSSDHWVFGGGTKLTVLGQPKAAPSVTLFPPSSEELQANKATLVCLISDFYPGAVTVAWKADGSPVKAGVETTKPSKQSNNKYAASSYLSLTPEQWKSHRSYSCQVTHEGSTVEKTVAPTECS | – | – | no binding (tested: 225 nM) | 14 | – | – | – | –
hu3C2 IgA2 (hu3C2-hLhA2 (P221R)) (antibody) heavy: EVQLAESGGDLVQPGGSLRLSCAASGFTFSSYAMSWVRQAPGKGLEWVSAISGSGGSTYYADSVKGRFTISRDNSKNTLYLQMNSLRAEDTAIYYCARDLRVYAMEAFDIWGQGTMVTVSSASPTSPKVFPLSLDSTPQDGNVVVACLVQGFFPQEPLSVTWSESGQNVTARNFPPSQDASGDLYTTSSQLTLPATQCPDGKSVTCHVKHYTNSSQDVTVPCRVPPPPPCCHPRLSLHRPALEDLLLGSEANLTCTLTGLRDASGATFTWTPSSGKSAVQGPPERDLCGCYSVSSVLPGCAQPWNHGETFTCTAAHPELKTPLTANITKSGNTFRPEVHLLPPPSEELALNELVTLTCLARGFSPKDVLVRWLQGSQELPREKYLTWASRQEPSQGTTTFAVTSILRVAAEDWKKGDTFSCMVGHEALPLAFTQKTIDRLAGKPTHVNVSVVMAEVDGTCY light: SYELTQDPAVSVALGQTVRITCQGDSLRDYYANWFQQKPGQAPLLVIFYDSDRPSGIPERFSGSNSGNTATLTISRVEAGDEADYYCQAWDSSSDHWVFGGGTKLTVLGQPKAAPSVTLFPPSSEELQANKATLVCLISDFYPGAVTVAWKADGSPVKAGVETTKPSKQSNNKYAASSYLSLTPEQWKSHRSYSCQVTHEGSTVEKTVAPTECS | – | – | – | – | 2.44 | 9.3 | 20.9 | binding result [4]: no binding (tested: 200 nM (highest CD117 concentration))
hu4A2 IgG4 (hu4A2-hKG4p) (antibody, Human IgG4, kappa) heavy: not shown light: IVLTQSPGTLSLSPGKRATLSCRASQSVSNSYLAWYQQKPGQPPKLLIYWASTRESGVPDRFSGSGSGTDFTLTISSLQAEDVAVYYCQQYYSTPLTFGGGTKVEIKRTVAAPSVFIFPPSDEQLKSGTASVVCLLNNFYPREAKVQWKVDNALQSGNSQESVTEQDSKDSTYSLSSTLTLSKADYEKHKVYACEVTHQGLSSPVTKSFNRGEC | – | – | no binding (tested: 225 nM) | 49 | 19.9 | 38.3 | 43.4 | –
hu3B3 IgG4 (hu3B3-hLG4) (antibody) heavy: not shown light: SYELTQPPSVSVSPGQTASITCSGDKVGAKYVFWYQQKPGQSPVLVVYQDNKRPSGIPERFSGSNSGNTATLTISGTQAMDEADYYCQAWDSSTALYVFGTGTKVTVLGQPKANPTVTLFPPSSEELQANKATLVCLISDFYPGAVTVAWKADGSPVKAGVETTKPSKQSNNKYAASSYLSLTPEQWKSHRSYSCQVTHEGSTVEKTVAPTECS | – | – | no binding (tested: 225 nM) | 9 | – | – | – | –
hu3B3 IgA2 (hu3B3-hLhA2 (P221R)) (antibody) heavy: EVQLVESGGGVVQPGRSLRLSCAASGFTFSSYAMHWVRQAPGKGLEWVSVIYSGGSTYYADSVKGRFTISRDNSKNTLYLQMNSLRAEDTAVYYCARDSSGYRGDFDYWGQGTLVTVSSASPTSPKVFPLSLDSTPQDGNVVVACLVQGFFPQEPLSVTWSESGQNVTARNFPPSQDASGDLYTTSSQLTLPATQCPDGKSVTCHVKHYTNSSQDVTVPCRVPPPPPCCHPRLSLHRPALEDLLLGSEANLTCTLTGLRDASGATFTWTPSSGKSAVQGPPERDLCGCYSVSSVLPGCAQPWNHGETFTCTAAHPELKTPLTANITKSGNTFRPEVHLLPPPSEELALNELVTLTCLARGFSPKDVLVRWLQGSQELPREKYLTWASRQEPSQGTTTFAVTSILRVAAEDWKKGDTFSCMVGHEALPLAFTQKTIDRLAGKPTHVNVSVVMAEVDGTCY light: SYELTQPPSVSVSPGQTASITCSGDKVGAKYVFWYQQKPGQSPVLVVYQDNKRPSGIPERFSGSNSGNTATLTISGTQAMDEADYYCQAWDSSTALYVFGTGTKVTVLGQPKANPTVTLFPPSSEELQANKATLVCLISDFYPGAVTVAWKADGSPVKAGVETTKPSKQSNNKYAASSYLSLTPEQWKSHRSYSCQVTHEGSTVEKTVAPTECS | – | – | – | – | 0.49 | 2.5 | 4.4 | binding result [4]: no binding (tested: 200 nM (highest CD117 concentration))
4A2 IgA2 anti-CD117 antibody (Example 8) (antibody, V domains shown) VH: EVQLLESGGGLVQPGGSLRLSCAASGFTFSDYGMSWVRQAPGKGLEWVSAIGYGGGGKYYADSVKGRFTISRDNSKNTLYLQMNSLRAEDTAVYYCAKDTWWLAGLFDYWGQGTLVTVSS VL: EIVLTQSPGTLSLSPGKRATLSCRASQSVSNSYLAWYQQKPGQPPKLLIYWASTRESGVPDRFSGSGSGTDFTLTISSLQAEDVAVYYCQQYYSTPLTFGGGTKVEIKR | 0.64 | 95.3 | – | – | – | – | – | –
